Data published in paper PMC1876262.

Biological target: Bovine brain tubulin (bovine) (UniProt Q6B856)
Chain of UniProt Q6B856 (Q6B856 whole entry, looked up): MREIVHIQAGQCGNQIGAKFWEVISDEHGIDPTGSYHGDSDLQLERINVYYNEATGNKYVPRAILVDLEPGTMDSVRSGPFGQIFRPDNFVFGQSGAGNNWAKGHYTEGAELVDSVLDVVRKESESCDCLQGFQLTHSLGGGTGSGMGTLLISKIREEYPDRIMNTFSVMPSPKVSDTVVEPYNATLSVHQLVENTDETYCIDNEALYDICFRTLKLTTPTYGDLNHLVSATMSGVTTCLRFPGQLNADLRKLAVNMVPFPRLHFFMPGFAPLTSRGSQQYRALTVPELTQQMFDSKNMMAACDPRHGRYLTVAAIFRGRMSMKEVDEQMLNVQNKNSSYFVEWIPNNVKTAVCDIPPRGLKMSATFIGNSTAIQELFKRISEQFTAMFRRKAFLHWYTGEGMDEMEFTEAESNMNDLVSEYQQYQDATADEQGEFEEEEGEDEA

decrease of thermal aggregation of tubulin: OD340 at 52°C for 60 min (Figure 4): 65%
B1: wt human αB crystallin (natural protein)
chain: MDIAIHHPWIRRPFFPFHSPSRLFDQFFGEHLLESDLFPTSTSLSPFYLRPPSFLRAPSWFDTGLSEMRLEKDRFSVNLDVKHFSPEELKVKVLGDVIEVHGKHEERQDEHGFISREFHRKYRIPADVDPLTITSSLSSDGVLTVNGPRKQVSGPERTIPITREEKPAVTAAPKK
